In patent US9732101B2, “Bioreversible boronates for delivery of molecules into cells” (WISCONSIN ALUMNI RESEARCH FOUNDATION, priority 2012, dated 2017):

How the values were obtained:
[1] = Heparin-affinity assay (retention on immobilized heparin column); format: binding; settings: for retention on column of heparin in presence of fructose: 0.10 M fructose in elution buffer
Protocol: To assess the affinity of boronated proteins for oligosaccharides the retention of boronated proteins compared to unmodified protein can be measured on a heparin column.
For example, the affinity of unmodified and benzoboroxole-boronated RNase A for heparin was assessed by retention on a 1.0-mL HiTrap Heparin HP column (GE Healthcare, Piscataway, N.J.). Unmodified and benzoboroxole-boronated RNase A were mixed in a 1:1 ratio (2.0 mg each) in DPBS, and the resulting solution was loaded onto the column. The column was washed with 5 mL of PBS, followed by elution with 45 mL of a linear gradient of NaCl (0.0-1.0 M) in PBS. Elution was monitored by absorbance at 280 nm, and eluted proteins were identified by mass spectrometry. FIG. 2 illustrates an elution profile of a mixture of unmodified RNase A and benzoboroxole-boronated RNase A from a column of immobilized heparin (solid lines). A small amount of unmodified RNase A was apparent in peak B (FIG. 2). It is currently believed that benzoboroxole-boronated RNase A was able to complex to a small amount of unmodified RNase A and extend its elution time. The same assay was then repeated with 100 mM fructose in both buffers (FIG. 2, dashed line). To make fructose-supplemented buffers, fructose (18 g, 100 mmol) was added to 100 mL of a 10× stock solution of PBS, either no additional NaCl or NaCl (58.4 g, 1.00 mol) was added, and both buffers were diluted to a final volume of 1 L and adjusted to pH 7.4.

[2] = tested on: Lec-2 cells; assay: Cellular internalization by flow cytometry; format: cell-based, Chinese hamster
Protocol: (§1) Cell lines were obtained from American Type Culture Collection (Manassas, Va.) and were maintained according to the recommended procedures. Cells were grown in a cell culture incubator at 37° C. under CO2 (5% v/v) in flat-bottomed culture flasks. Cell medium was supplemented with GIBCO fetal bovine serum (FBS) (10% v/v), penicillin (100 units/mL), and streptomycin (100 μg/mL) in the appropriate cellular medium as follows: Pro-5, MEM α+ribonucleosides+deoxyribonucleosides; Lec-2, MEM α-ribonucleosides-deoxyribonucleosides; and K562, RPMI 1640. Cells were counted by hemocytometry for dispensing into 12-well plates (Corning Costar, Lowell, Mass.) or 8-well chambered coverglass slides (Nuc Lab-Tek II, Thermo Scientific).
(§2) BODIPY-FL was excited with a 488 nm solid-state laser and the emission was collected with a 530/30 bandpass filter. To collect the most reproducible data, for every flow cytometry experiment, the sensitivity (voltage) of the photomultiplier tube was set for all data collections using mid-range Rainbow beads from Spherotech (Lake Forest, Ill.) to a predetermined fluorescence target value. At least 10,000 cellular events were acquired for each sample. Data were analyzed using FlowJo 8.1.3 (Treestar, Ashland, Oreg.).
(§3) The day prior to an experiment, Pro-5 and Lec-2 cells were plated in 12-well plates at 1×10^5 cells/well. The day of the experiment, the appropriate amount of fructose was dissolved into the cellular medium to obtain a final fructose concentration of 250 mM, and the medium was passed through a 0.45-μm syringe filter from Whatman (Piscataway, N.J.). Non-fructose-containing medium was filtered likewise. Stock solutions of fluorescently labeled ribonucleases were diluted into the cell culture to a final concentration of 5 μM. Ribonucleases were incubated with cells for 4 h. Cells were then rinsed with PBS (2×400 μL), removed from the cell culture plate with trypsin (400 μL, 0.05% (1×) with EDTA; Invitrogen, Carlsbad, Calif.), placed in flow cytometry tubes containing 80 μL of FBS, and incubated on ice until analyzed by flow cytometry. Final fluorescence values were divided by the percent fluorophore labeling of the ribonuclease to determine the corrected value of fluorescence. Experiments were run twice in triplicate unless otherwise indicated. Data is illustrated in FIG. 4A and FIG. 4C.

[3] = tested on: Pro-5 cells; assay: Cellular internalization by flow cytometry; format: cell-based, Chinese hamster
Protocol: as §1, §2, §3

[4] = tested on: 6-FAM-dArUdAdA-6-TAMRA; assay: Ribonucleolytic activity assay; format: biochemical; settings: relative to unmodified RNase A; 0.10 M MES-NaOH buffer, pH 6.0, NaCl 0.10 M
Protocol: Assays were carried out at ambient temperature in 2 mL of 0.10 M MES-NaOH buffer, pH 6.0, containing NaCl (0.10 M). Fluorescence data were fitted to the equation: kcat/KM=(ΔI/Δt)/(If−I0)[E], in which ΔI/Δt is the initial reaction velocity, I0 is the fluorescence intensity before addition of ribonuclease, If is the fluorescence intensity after complete substrate hydrolysis, and [E] is the total ribonuclease concentration. The assay was performed in triplicate.

[5] = 5 μM, 4 h, relative to unmodified RNase A

B1: benzoboroxole-boronated RNase A: RNase A with 5-amino-2-hydroxymethylphenylboronic acid conjugated to protein carboxyl groups by carbodiimide condensation (conjugate, UniProt P61823 27-150, looked up)
Ribonuclease pancreatic: KETAAAKFERQHMDSSTSAASSSNYCNQMMKSRNLTKDRCKPVNTFVHESLADVQAVCSQKNVACKNGQTNCYQSYSTMSITDCRETGSSKYPNCAYKTTQANKHIIVACEGNPYVPVHFDASV
modifications: benzoboroxole conjugated to carboxyl groups
notes: RNase A with 5-amino-2-hydroxymethylphenylboronic acid conjugated to protein carboxyl groups by carbodiimide condensation
retention on column of heparin in presence of fructose [1]: diminishing retention | retention on column of heparin in presence of fructose ([1]; listed as boronated RNAse A): diminished the retention | retention on column of heparin ([1]; versus unmodified RNase A, NaCl gradient in PBS): retained longer | increase in cellular uptake [2, 5]: 4- to 5 fold | effect of fructose on enhancement of cellular uptake ([2]; fructose 0.25 M): eliminated | increase in cellular uptake [3, 5]: 4- to 5 fold | effect of fructose on enhancement of cellular uptake ([3]; fructose 0.25 M): eliminated | ribonucleolytic activity retained [4]: 17±2%
